# B1: TPP-18068 (antibody, mouse IgG1)
# heavy: EVQLLESGGGLVQPGGSLRLSCAASGFTFSSYGMHWVRQAPGKGLEWVSVISYDGSYKYYADSVKGRFTISRDNSKNTLYLQMNSLRAEDTAVYYCAAGVPDYWGQGTLVTVSSAKTTPPSVYPLAPGSAAQTNSMVTLGCLVKGYFPEPVTVTWNSGSLSSGVHTFPAVLQSDLYTLSSSVTVPSSTWPSETVTCNVAHPASSTKVDKKIVPRDCGCKPCICTVPEVSSVFIFPPKPKDVLTITLTPKVTCVVVDISKDDPEVQFSWFVDDVEVHTAQTQPREEQFNSTFRSVSELPIMHQDWLNGKEFKCRVNSAAFPAPIEKTISKTKGRPKAPQVYTIPPPKEQMAKDKVSLTCMITDFFPEDITVEWQWNGQPAENYKNTQPIMDTDGSYFVYSKLNVQKSNWEAGNTFTCSVLHEGLHNHHTEKSLSHSPGK
# light: QSVLTQPPSASGTPGQRVTISCTGSSSNIGAGYDVHWYQQLPGTAPKLLIYSNNERPSGVPDRFSGSKSGTSASLAISGLRSEDEADYYCAAWDDSLNGPVFGGGTKLTVLGQPKSSPSVTLFPPSSEELETNKATLVCTITDFYPGVVTVDWKVDGTPVTQGMETTQPSKQSNNKYMASSYLTLTARAWERHSSYSCQVTHEGHTVEKSLSRADCS
# notes: mIgG1, Lambda
# B2: TPP-18087 (antibody, mouse IgG1, V domains shown)
# VH: EVQLLESGGGLVQPGGSLRLSCAASGFTFSHYDMNWLRQAPGKGLEWVGVISYDGSNKFYADFVKGRFTISRDNSKNTLYLQMNSLRAEDTAVYYCARTPGSHFDYWGQGTLVTVSS
# VL: QSVLTQPPSASGTPGQRVTISCSGSSSNIGNNAVNWYQQLPGTAPKLLIYYDDLLPSGVPDRFSGSKSGTSASLAISGLRSEDEADYYCSAWDDSLNGVVFGGGTKLTVLG
# notes: mIgG1, Lambda
# Columns and labels:
# human IL-11 [1] = target: T1, human IL-11 (human, UniProt P20809 22-199); experiment: cell-based or functional assay
# T1 sequence: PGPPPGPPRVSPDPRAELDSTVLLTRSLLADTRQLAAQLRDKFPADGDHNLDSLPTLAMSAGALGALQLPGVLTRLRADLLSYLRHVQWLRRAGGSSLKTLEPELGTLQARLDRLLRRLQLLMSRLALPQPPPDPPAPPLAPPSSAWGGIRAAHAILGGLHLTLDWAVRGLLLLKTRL
# murine IL-11 [2] = target: T2, murine IL-11 (mouse, UniProt P47873 22-199); experiment: cell-based or functional assay
# T2 sequence: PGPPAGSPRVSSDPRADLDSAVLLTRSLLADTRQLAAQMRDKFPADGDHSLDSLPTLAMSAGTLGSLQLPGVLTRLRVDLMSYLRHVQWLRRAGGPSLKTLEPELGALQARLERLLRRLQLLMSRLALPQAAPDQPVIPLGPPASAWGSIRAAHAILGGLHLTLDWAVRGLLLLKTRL
# murine IL-11 [3] = target: T2, murine IL-11; experiment: SPR 37 C, antibody captured, IL-11 as analyte
# cynomolgus IL-11 = target: T3, cynomolgus IL-11 (cynomolgus, UniProt P20808 22-199); experiment: SPR 37 C, antibody captured, IL-11 as analyte
# T3 construct: Invigate, lot #C290621-19; also called cIL11; cynoL-11
# T3 sequence: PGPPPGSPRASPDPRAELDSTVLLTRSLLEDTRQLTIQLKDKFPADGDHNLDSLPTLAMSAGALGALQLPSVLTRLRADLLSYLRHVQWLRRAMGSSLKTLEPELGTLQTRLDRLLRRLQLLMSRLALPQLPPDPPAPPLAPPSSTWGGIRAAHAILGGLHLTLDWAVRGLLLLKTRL
# rat IL-11 = target: T4, rat IL-11 (rat, UniProt Q99MF5 22-199); experiment: SPR 37 C, antibody captured, IL-11 as analyte
# T4 construct: Invigate, e.g. lot #C301019-19; also called rIL11
# T4 sequence: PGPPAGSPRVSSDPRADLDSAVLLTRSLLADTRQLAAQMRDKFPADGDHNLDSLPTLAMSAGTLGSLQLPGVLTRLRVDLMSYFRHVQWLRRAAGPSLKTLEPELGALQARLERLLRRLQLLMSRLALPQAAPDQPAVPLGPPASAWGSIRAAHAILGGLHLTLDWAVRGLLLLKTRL
# human IL-11 [4] = target: T5, human IL-11 (human, UniProt P20809 22-199); experiment: Tri-complex ELISA, hIL-11 + mIL-11Ra-Fc + hgp130-Fc, inhibition of complex formation; Tri-complex ELISA (IL-11/IL-11Ra/gp130 formation), efficacy only 25%
# T5 construct: Invigate recombinant protein; biotinylated when immobilized in the Di-complex ELISA; also called hIL11; hIL-11
# T5 sequence: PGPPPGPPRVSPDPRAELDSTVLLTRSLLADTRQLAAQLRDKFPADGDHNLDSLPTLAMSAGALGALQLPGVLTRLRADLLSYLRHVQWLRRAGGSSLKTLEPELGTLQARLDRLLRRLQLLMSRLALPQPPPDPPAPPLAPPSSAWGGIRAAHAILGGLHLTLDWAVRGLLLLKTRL
# Protocol: In a first step, 25 μl of goat anti human IgG (Sigma, #12136), diluted 1:1000 in coating buffer (Candor, #121125) was coated on the plate at 4° C. overnight. Next day, the plate was washed one time with 50 μl PBST and then blocked with 50 μl SmartBlock (Candor, #113125) for one hour at room temperature (RT). […] After three additional washes of the coated and blocked microtiter plate with PBS-T, 25 μl of each mixture were added and the assay plate was incubated for one hour at room temperature. After three additional washes, anti-mouse-gp130 biotinylated antibody (R&D, #BAF468) or anti-human gp130 biotinylated antibody (R&D, #BAF228), both 1:1000 in 10% SmartBlock PBS-T, was added and incubated for 1 hour at RT. […] Then, the fluorescence was measured with a plate reader at 535/595 nm. […] Efficacy was calculated as [(signal measured at lowest antibody concentration−signal measured at the highest antibody concentration)×100] divided by (signal measured at lowest antibody concentration−signal measured in the absence of antibody at an IL11 concentration of 8.2E-11 [M]).
# IgG converted antibodies were subjected to the experimental assay procedure described in Example 19 and IC50 [M], respectively efficacy (%) were calculated accordingly.
Binder,RGA Efficacy (%) (human IL-11 [1]),RGA IC50 (human IL-11 [1]) [nM],RGA Efficacy (%) (murine IL-11 [2]),RGA IC50 (murine IL-11 [2]) [nM],Kd (murine IL-11 [3]) [nM],Kd (cynomolgus IL-11) [nM],Kd (rat IL-11) [nM],IC50 (human IL-11 [4]) [nM]
B1,60.3,6.7,93.1,1,0.41,5,0.58,–
B2,–,–,–,–,–,–,–,1.5
